We go through 5 proteins from article PMC12550018, “High-resolution native electrophoresis in-gel activity assay reveals biological insights of medium-chain fatty acyl-CoA dehydrogenase deficiency” (Scientific Reports, 2025).

Changes are numbered by the printed parent chain. Names may count otherwise.

Series [1] concerns the molecule itself. The series can be described thus: SEC; Superdex 200 5/150 GL, 2 mg/ml protein, 0.1 ml PBS/min, 5 °C, absorbance at 280 nm; mass by calibration with protein standards. A general note: Size exclusion chromatography separates by hydrodynamic size, large species first.
Series [2] concerns the molecule itself. The series can be described thus: native gel or EMSA; high-resolution clear native PAGE (hrCN-PAGE) of purified recombinant protein, 4-16% or 4-20% gradient gels, pH 7.0, cathode buffer with 0.05% sodium deoxycholate and 0.01% n-dodecyl-beta-D-maltoside; Coomassie, FAD fluorescence and acyl-CoA:NBT in-gel activity staining. For orientation: A gel shift assay detects complexes by their altered migration in electrophoresis.

B1: Medium-chain specific acyl-CoA dehydrogenase (MCAD), human recombinant wild type (enzyme, UniProt P11310-1 26-421, looked up)
chain: KANRQREPGLGFSFEFTEQQKEFQATARKFAREEIIPVAAEYDKTGEYPVPLIRRAWELGLMNTHIPENCGGLGLGTFDACLISEELAYGCTGVQTAIEGNSLGQMPIIIAGNDQQKKKYLGRMTEEPLMCAYCVTEPGAGSDVAGIKTKAEKKGDEYIINGQKMWITNGGKANWYFLLARSDPDPKAPANKAFTGFIVEADTPGIQIGRKELNMGQRCSDTRGIVFEDVKVPKENVLIGDGAGFKVAMGAFDKTRPVVAAGAVGLAQRALDEATKYALERKTFGKLLVEHQAISFMLAEMAMKVELARMSYQRAAWEVDSGRRNTYYASIAKAFAGDIANQLATDAVQILGGNGFNTEYPVEKLMRDAKIYQIYEGTSQIQRLIVAREHIDKYKN
notes: Medium-chain specific acyl-CoA dehydrogenase (MCAD), human, encoded by ACADM; One FAD per monomer; also called MCAD WT; human recombinant MCAD; not shown: MBP, N-terminal, cleaved
With B1, in series [1], the stoichiometry N (commonly a count of units in the complex or per binding partner) is 4.

B2: MCAD variant p.R206C, human recombinant (enzyme, UniProt P11310-1 26-421, looked up)
chain: B1 chain with R181C
notes: MCAD, human, encoded by ACADM, clinically relevant variant p.R206C made by site-directed mutagenesis in pMALc2X; masses fit the mature protein (26-421); The residue number counts on the precursor; Native MS: only three FAD per tetramer; also called MCAD R206C; not shown: MBP, N-terminal, cleaved
In the case of B2, the “stoichiometry N” value in series [1] turned out to be 4.

B3: MCAD variant p.K329E, human recombinant (enzyme, UniProt P11310-1 26-421, looked up)
chain: B1 chain with K304E
notes: MCAD, human, encoded by ACADM, clinically relevant variant p.K329E made by site-directed mutagenesis in pMALc2X; masses fit the mature protein (26-421); The residue number counts on the precursor; also called MCAD K329E; not shown: MBP, N-terminal, cleaved
On to B3, for which the “stoichiometry N” value in series [1] turned out to be 4.

B4: MCAD variant p.Y67H, human recombinant (enzyme, UniProt P11310-1 26-421, looked up)
chain: B1 chain with Y42H
notes: MCAD, human, encoded by ACADM, clinically relevant variant p.Y67H made by site-directed mutagenesis in pMALc2X; masses fit the mature protein (26-421); The residue number counts on the precursor; also called MCAD Y67H; not shown: MBP, N-terminal, cleaved
Take B4: the “stoichiometry N” value in series [1] was 4.

B5: Glutaryl-CoA dehydrogenase (GCDH), human recombinant wild type (enzyme, UniProt Q92947 45-438, looked up)
chain: RPEFDWQDPLVLEEQLTTDEILIRDTFRTYCQERLMPRILLANRNEVFHREIISEMGELGVLGPTIKGYGCAGVSSVAYGLLARELERVDSGYRSAMSVQSSLVMHPIYAYGSEEQRQKYLPQLAKGELLGCFGLTEPNSGSDPSSMETRAHYNSSNKSYTLNGTKTWITNSPMADLFVVWARCEDGCIRGFLLEKGMRGLSAPRIQGKFSLRASATGMIIMDGVEVPEENVLPGASSLGGPFGCLNNARYGIAWGVLGASEFCLHTARQYALDRMQFGVPLARNQLIQKKLADMLTEITLGLHACLQLGRLKDQDKAAPEMVSLLKRNNCGKALDIARQARDMLGGNGISDEYHVIRHAMNLEAVNTYEGTHDIHALILGRAITGIQAFTASK
notes: Glutaryl-CoA dehydrogenase, human, wild type; source: purified by a procedure similar to that for MCAD (E. coli, MBPTrap, TEV digestion, SEC)
As to B5, the binding result in series [2] was “binds”.
